According to article PMC4897736, “Structural and biochemical characterization of the cell fate determining nucleotidyltransferase fold protein MAB21L1” (Scientific Reports, 2016):

Legend:
MAB21L1 [1] = target: T1, MAB21L1 (Homo sapiens, UniProt Q13394); experiment: co-crystal structure ([…] Å), ITC, thermal shift; format: binding
T1 construct: full length
T1 sequence (Q13394 1-359): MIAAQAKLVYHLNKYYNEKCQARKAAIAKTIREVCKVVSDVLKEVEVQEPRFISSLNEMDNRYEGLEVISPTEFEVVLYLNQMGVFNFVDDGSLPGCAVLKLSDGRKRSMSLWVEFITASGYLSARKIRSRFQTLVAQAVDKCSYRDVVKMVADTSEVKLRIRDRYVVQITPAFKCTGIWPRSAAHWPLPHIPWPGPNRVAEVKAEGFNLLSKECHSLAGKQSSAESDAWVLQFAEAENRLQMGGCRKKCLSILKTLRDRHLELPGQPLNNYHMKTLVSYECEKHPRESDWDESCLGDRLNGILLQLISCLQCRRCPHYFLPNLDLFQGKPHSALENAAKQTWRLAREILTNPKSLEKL

MAB21L1 [2] = target: T1, MAB21L1; experiment: ITC, thermal shift; format: binding
MAB21L1 [3] = target: T2, MAB21L1 (Homo sapiens, UniProt Q13394 1-359); experiment: EMSA; 0.5 uM nucleic acid; EMSA: 20 mM Tris pH 8.0, 200 mM NaCl, 30 min on ice, 1% agarose gel, Gel-Red stain; settings: protein: recombinant; tags: His-MBP tag removed by TEV; label: none (Gel-Red stain); single strand
T2 sequence: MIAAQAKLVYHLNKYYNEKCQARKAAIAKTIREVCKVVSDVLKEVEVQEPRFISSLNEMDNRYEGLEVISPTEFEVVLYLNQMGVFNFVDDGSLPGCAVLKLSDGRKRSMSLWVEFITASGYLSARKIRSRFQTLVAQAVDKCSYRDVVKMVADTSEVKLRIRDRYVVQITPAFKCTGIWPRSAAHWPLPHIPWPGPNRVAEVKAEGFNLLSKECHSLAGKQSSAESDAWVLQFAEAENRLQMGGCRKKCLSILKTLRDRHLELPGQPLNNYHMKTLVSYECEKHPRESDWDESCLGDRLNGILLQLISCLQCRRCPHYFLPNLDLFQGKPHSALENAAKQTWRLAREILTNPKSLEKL

MAB21L1 [4] = target: T2, MAB21L1; experiment: EMSA; 1 uM nucleic acid; EMSA: 20 mM Tris pH 8.0, 200 mM NaCl, 30 min on ice, 1% agarose gel, Gel-Red stain; settings: protein: recombinant; tags: His-MBP tag removed by TEV; label: none (Gel-Red stain); blunt

Molecule: Nc1ccn([C@@H]2O[C@H](COP(=O)(O)OP(=O)(O)OP(=O)(O)O)[C@@H](O)[C@H]2O)c(=O)n1 [CTP]
- Kd (MAB21L1 [1]): 410 nM

Molecule: Nc1ncnc2c1ncn2[C@@H]1O[C@H](COP(=O)(O)OP(=O)(O)OP(=O)(O)O)[C@@H](O)[C@H]1O [ATP]
- Kd (MAB21L1 [2]): 340 nM

Molecule: Nc1ncnc2c1ncn2[C@@H]1O[C@H](COP(=O)(O)OP(=O)(O)O)[C@@H](O)[C@H]1O [ADP]
- Kd (MAB21L1 [2]): 3100 nM

B1: 50mer ssDNA (ssDNA)
DNA: GGATACGTAACAACGCTTATGCATCGCCCCGCTACATCCCTGAGCTGAC
- apparent K (half saturation) (MAB21L1 [3]): 6.7 µM

B2: 50mer dsDNA (dsDNA)
DNA 1: GGATACGTAACAACGCTTATGCATCGCCCCGCTACATCCCTGAGCTGAC
DNA 2: GTCAGCTCAGGGATGTAGCGGGGCGATGCATAAGCGTTGTTACGTATCC
- apparent K (half saturation) (MAB21L1 [4]): 6 µM

B3: 50mer ssRNA (ssRNA)
RNA: GGAUACGUAACAACGCUUAUGCAUCGCCCCGCUACAUCCCUGAGCUGAC
- apparent K (half saturation) (MAB21L1 [3]): 3.3 µM

B4: 50mer dsRNA (dsRNA)
RNA 1: GGAUACGUAACAACGCUUAUGCAUCGCCCCGCUACAUCCCUGAGCUGAC
RNA 2: GUCAGCUCAGGGAUGUAGCGGGGCGAUGCAUAAGCGUUGUUACGUAUCC
- apparent K (half saturation) (MAB21L1 [4]): 5 µM
